Experiments:
[1] = target: T1, human OX40 protein expressed on the surface of cells (human, UniProt P43489 29-277); assay: cell-based or functional assay
T1 sequence: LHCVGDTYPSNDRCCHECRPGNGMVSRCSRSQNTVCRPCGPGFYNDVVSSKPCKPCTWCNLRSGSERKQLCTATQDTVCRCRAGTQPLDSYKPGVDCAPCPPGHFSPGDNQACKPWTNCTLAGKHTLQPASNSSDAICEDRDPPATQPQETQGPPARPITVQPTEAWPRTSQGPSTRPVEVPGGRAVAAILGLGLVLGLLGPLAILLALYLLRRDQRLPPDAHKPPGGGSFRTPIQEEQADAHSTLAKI

[2] = target: T2, cynomolgus monkey OX40 protein expressed on the surface of cells (cynomolgus monkey); assay: flow cytometry (MFI) on transfected 293T cells
T2 construct: whole, on cells; On transiently transfected 293T cells

[3] = target: T1, human OX40 protein expressed on the …; assay: flow cytometry (MFI) on transfected 293T cells
[4] = target: T1, human OX40 protein expressed on the …; assay: flow cytometry (MFI) on 293T cells expressing human OX40
[5] = target: T2, cynomolgus monkey OX40 protein …; assay: flow cytometry (MFI) on 293T cells expressing cynomolgus monkey OX40
[6] = target: T2, cynomolgus monkey OX40 protein …; assay: flow cytometry (MFI) on activated primary monkey T cells, donor M20Z013009
[7] = target: T2, cynomolgus monkey OX40 protein …; assay: flow cytometry (MFI) on activated primary monkey T cells, donor M20Z025008
[8] = target: T2, cynomolgus monkey OX40 protein …; assay: flow cytometry (MFI) on activated primary monkey T cells, donor Lot #200107
[9] = target: T1, human OX40 protein expressed on the …; assay: flow cytometry (MFI) on CD3/CD28-activated primary human CD4+CD3+ T cells, first donor
[10] = target: T1, human OX40 protein expressed on the …; assay: flow cytometry (MFI) on CD3/CD28-activated primary human CD4+CD3+ T cells, second donor
Experimental: Activation of human T cells were evaluated using CD3⁺ T cells isolated from two human donors' peripheral blood mononuclear cells (hPBMCs) pre-activated using CD3/CD28 Dynabeads.

[11] = target: T3, mouse OX40 protein expressed on the surface of 293T cells (mouse, UniProt P47741 20-272); assay: flow cytometry on 293T cells transiently transfected with mouse OX40, goat anti-human IgG PE, MFI
T3 construct: whole, on cells
T3 sequence (looked up): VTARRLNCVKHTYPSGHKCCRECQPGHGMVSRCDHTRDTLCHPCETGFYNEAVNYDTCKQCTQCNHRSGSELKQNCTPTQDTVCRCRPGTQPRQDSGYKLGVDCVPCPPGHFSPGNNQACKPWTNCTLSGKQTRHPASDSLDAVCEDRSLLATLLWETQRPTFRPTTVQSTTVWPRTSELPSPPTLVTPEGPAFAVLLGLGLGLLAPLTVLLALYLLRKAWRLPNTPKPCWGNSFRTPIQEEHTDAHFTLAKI
Experimental: (§1) Then, after washing twice with PBS, the cells were incubated with the secondary goat anti-human IgG PE antibody (1:200; Abcam, Cat. ab98596) at room temperature for 30 minutes.

[12] = target: T4, recombinant human OX40-mFc protein (human, UniProt P43489 29-214); assay: BLI (Octet QKe), antibody on anti-human Fc sensor, OX40-mFc in solution, 25 C, pH 7.4, 1:1 model; Experiment A
T4 construct: Recombinant dimer (mFc-tagged); also called hOX40.mFc; recombinant human OX40 protein; not shown: mFc tag
T4 sequence: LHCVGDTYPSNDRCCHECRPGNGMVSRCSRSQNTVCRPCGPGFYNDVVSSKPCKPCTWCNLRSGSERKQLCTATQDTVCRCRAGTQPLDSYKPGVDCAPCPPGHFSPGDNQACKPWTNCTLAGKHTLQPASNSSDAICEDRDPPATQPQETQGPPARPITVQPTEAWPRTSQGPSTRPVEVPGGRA

[13] = target: T4, recombinant human OX40-mFc protein; assay: BLI (Octet QKe), antibody on anti-human Fc sensor, OX40-mFc in solution, 25 C, pH 7.4, 1:1 model; Experiment B
Experimental: The changes of binding signal were recorded, and the kinetic analysis of binding parameters were determined using the Model: 1:1 with the mass transfer limitation. The running buffer solution was prepared with PBS, pH 7.4, containing 0.1% BSA and 0.1% Tween 20. Prior to the kinetic binding experiment, the anti-human Fe capture sensor was rinsed with the running buffer, and the instrument was prewarmed to 25° C. […] The binding of OX40 protein and its antibodies was performed in duplicate with the running buffer at pH 7.4 and 25° C. In short, first, the anti-human Fc capture sensor was immersed in the running buffer for 300 seconds to set the first baseline. The sensor was then mixed with 200 nM test antibody solution for 600 seconds to load the antibody. The sensor was again immersed in the running buffer for 300 seconds to set the second baseline, and then associated with various concentrations of OX40 antigen for 900 seconds. Then dissociation was performed by immersing the sensor in the running buffer for another 900 seconds. In parallel, one sensor was selected as a reference, in which all loading, association, and dissociation steps were performed in the running buffer. […] The sensorgrams were analyzed by Fortebio data analysis software version 8.2 (ForteBio; Fremont, CA). First, the signals were subtracted from the negative control experiment, and compared to the baselines. The kinetic parameters were obtained by entirely fitting these specific sensorgrams with different antigen concentrations to the binding Model: 1:1.

[14] = target: T5, human CD40 protein expressed on the surface of 293T cells (human, UniProt P25942 21-277); assay: flow cytometry on 293T cells transiently transfected with human CD40 (293T-hCD40), goat anti-human IgG PE, MFI
T5 construct: whole, on cells
Experimental: as §1

[15] = target: T6, biotinylated OX40 recombinant protein (UniProt P43489 29-216, limits assumed, biotinylated); assay: ELISA, plate coated with the antibody, biotinylated OX40 recombinant protein titrated (x axis = its concentration in nM), OD 450nm
T6 construct: also called OX40 protein; Biotin-OX40
T6 sequence (looked up): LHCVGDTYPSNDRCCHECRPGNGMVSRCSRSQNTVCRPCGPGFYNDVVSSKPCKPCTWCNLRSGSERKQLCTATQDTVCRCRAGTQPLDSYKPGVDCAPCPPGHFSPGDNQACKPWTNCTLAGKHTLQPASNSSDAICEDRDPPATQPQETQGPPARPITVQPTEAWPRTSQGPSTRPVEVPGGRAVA
Experimental: The next day, the plate was blocked with 1% BSA (Sangon Biotech, catalog number A600332-0100) in PBST at 37° C. for 2 hours, and then a defined concentration of biotinylated OX40 recombinant protein was added.

T5 sequence (P25942 21-277): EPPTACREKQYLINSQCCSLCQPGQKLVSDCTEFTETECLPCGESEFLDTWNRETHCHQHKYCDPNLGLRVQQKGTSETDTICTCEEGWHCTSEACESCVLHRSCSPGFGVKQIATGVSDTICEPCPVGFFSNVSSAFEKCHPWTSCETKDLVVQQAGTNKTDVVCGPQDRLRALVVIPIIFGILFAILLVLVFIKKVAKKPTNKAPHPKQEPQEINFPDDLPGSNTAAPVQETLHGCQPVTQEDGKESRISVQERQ

CD16 signaling in CD16-NF-AT-Luc reporter Jurkat cells, EC50 (nM), E:T 1:1 [1]: 1.2 nM | CD16 signaling in CD16-NF-AT-Luc reporter Jurkat cells, EC50 (nM), E:T 3:1 [1]: 0.7 nM | CD16 signaling in CD16-NF-AT-Luc reporter Jurkat cells, EC50 (nM), E:T 6:1 [1]: 0.5 nM | CD16 signaling in CD16-NF-AT-Luc reporter Jurkat cells, EC50 (nM), E:T 12:1 [1]: 0.3 nM | EC50 [2]: 2.9 nM | EC50 [3]: 2 nM | EC50 [4]: 2.02 nM | EC50 [5]: 2.94 nM | EC50 [6]: 0.19 nM | EC50 [7]: 0.17 nM | EC50 [8]: 0.09 nM | EC50 [9]: 0.65 nM | EC50 [10]: 1.36 nM | binding result [11]: no binding (tested: 100 nM) | Kd [12]: 4.5 nM | koff [12]: 0.00043 s⁻¹ | kon [12]: 97000 M⁻¹ s⁻¹ | Kd [13]: 4.4 nM | koff [13]: 0.00043 s⁻¹ | kon [13]: 97000 M⁻¹ s⁻¹ | binding result [14]: no binding (tested: 100 nM) | EC50 (read off the curve) [15]: ~0.2 nM
B1: anti-OX40 antibody HFB10-1E1hG1 (antibody, human IgG1, kappa, V domains shown)
VH: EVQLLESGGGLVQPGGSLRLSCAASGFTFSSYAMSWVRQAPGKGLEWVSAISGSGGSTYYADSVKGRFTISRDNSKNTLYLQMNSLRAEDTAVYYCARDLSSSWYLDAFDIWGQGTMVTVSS
VL: DIQMTQSPSSVSASVGDRVTITCRASQGISSWLAWYQQKPGKAPKLLIYAASSLQSGVPSRFSGSGSGTDFTLTISSLQPEDFATYYCQQANSFPLTFGGGTKLEIKR
notes: also called HFB301001

Reference: patent US20240317874A1 (HIFIBIO HK, published 2024)
